In the DeepSol protein solubility set:

Test: soluble on expression in E. coli; label from the status in PepcDB or PDB records

Sequence | soluble on expression in E. coli
MNIKLSFISIAFLSLSFNVAANEFEKSQEHYKSVTDLKNKIEILELEKKITELSGEIRNARMPKIDKSAPVLSPQPVVKSSEELQKSIEHIEEELKVELAYLVNNGQQKKYTFNLNGKLITLVNGDFVNGWKFIEDQNKIQFSKGNKVIDVN | not soluble
AHHHHHHGSYILQKNKGVIRVKDIAKMMRVKPPTVVEALKKLRDKGFVKYEEHEHILLTEKGLEVAKKTYSKHQLLTEFFINILGIPPEIAERDACQFEHYVSEVTVHRIREFISYIQQECPYALKQFLKKVREKDQAVAK | not soluble
MDIAEQLIQNAGKRSTPVRSAVLGVLLNAEDVLSHSEVLEHLQQLGAFDRVTVYRALDWLVTQGLVHKVAGAGRAWRFQVTRSESMHRHAHFQCHHCHKVFCLPEVQPVLPKELPSNFSIDSIELNIKGICADCGRAMMSQ | not soluble
HPICEVSKVASHLEVNCDKRNLTALPPDLPKDTTILHLSENLLYTFSLATLMPYTRLTQLNLDRAELTKLQVDGTLPVLGTLDLSHNQLQSLPLLGQTLPALTVLDVSFNRLTSLPLGALRGLGELQELYLKGNELKTLPPGLLTPTPKLEKLSLANNNLTELPAGLLNGLENLDTLLLQENSLYTIPKGFFGSHLLPFAFLHGNPWLCNCEILYFRRWLQDNAENVYVWKQGVDVKAMTSNVASVQCDNSDKFPVYKYPGKGCPTLGDEGDTDLYDYYPEEDTEGDKVR | soluble
SLALSSPILKEILIEAPSYAPNSFTFDSTNKGFYTSVQDGRVMKYEGPNSGFVDFAYASPYWNKAFCENSTDAEKRPLCGRTYDISYNLQNNQMYIVDCYYHLSVVGSEGGHATQLATSVDGVPFKWLYAVTVDQRTGIVYFTDVSTLYDDRGVQQIMDTSDKTGRLMKYDPSTKETTLLMKELHVPGGAEVSADSSFVLVAEFLSHQIVKYWLEGPKKGTAEVLVKIPNPGNIKRNADGHFWVSSSEELDGNMHGRVDPKGIKFDEFGNILEVIPLPPPFAGEHFEQIQEHDGLLYIGTLFHGSVGILVYDKKGNSFVSSH | soluble
MSDNDTIVAQATPPGRGGVGILRISGFKAREVAETVLGKLPKPRYADYLPFKDADGSVLDQGIALWFPGPNSFTGEDVLELQGHGGPVILDLLLKRILTIPGLRIARPGEFSERAFLNDKLDLAQAEAIADLIDASSEQAARSALNSLQGAFSARVNHLVEALTHLRIYVEAAIDFPDEEIDFLSDGKIEAQLNDVIADLDAVRAEARQGSLLREGMKVVIAGRPNAGKSSLLNALAGREAAIVTDIAGTTRDVLREHIHIDGMPLHIIDTAGLREASDEVERIGIERAWQEIEQADRVLFMVDGTTTDAVDPAEIWPEFIARLPAKLPITVVRNKADITGETLGMSEVNGHALIRLSARTGEGVDVLRNHLKQSMGFDTNMEGGFLARRRHLQALEQAAEHLQQGKAQLLGAWAGELLAEELRLAQQNLSEITGEFTSDDLLGRIFSSFCIGK | soluble
MTRPNDEGDVSSLAYKYETIADSLRQDIKSGKYTPGELMPDQNKLAETFDTTRITIHKAIQLLIIEGMVYSKRGAGTFVRKDFGLTERRQETLVDKPLGTTQTNAGKKVTSKVLELQARLPTKREAEQLLIDEMDPVYVIRRTRYVDGKVWAYEHTIMPTSIVTLTKQVLEGSVYGYLEQHSGKKIAGSHRIISAARVTADDVAAMGATLNDPVLVINQISYMDDGQPFEVSESHFPYETSTVVADVQIH | not soluble
MDPSVTLWQFLLQLLREQGNGHIISWTSRDGGEFKLVDAEEVARLWGLRKNKTNMNYDKLSRALRYYYDKNIIRKVSGQKFVYKFVSYPEVAGC | soluble
GSHGMRVIIAGFGRFGQITGRLLLSSGVKMVVLDHDPDHIETLRKFGMKVFYGDATRMDLLESAGAAKAEVLINAIDDPQTNLQLTEMVKEHFPHLQIIARARDVDHYIRLRQAGVEKPERETFEGALKTGRLALESLGLGPYEARERADVFRRFNIQMVEEMAMVENDTKARAAVYKRTSAMLSEIITEDREHLSLIQRHGWQGTEEGKHTGNMADEPETKPSSTSGGLVPRGSSGMILIIYAHPYPHHSHANKRMLEQARTLEGVEIRSLYQLYPDFNIDIAAEQEALSRADLIVWQHPMQWYSIPPLLKLWIDKVFSHGWAYGHGGTALHGKHLLWAVTTGGGESHFEIGAHPGFDVLSQPLQATAIYCGLNWLPPFAMHCTFICDDETLEGQARHYKQRLLEWQEAHHG | soluble
KKMAFTLADRVTEEMLADKAALVVEVVEENYHDAPIVGIAVVNEHGRFFLRPETALADPQFVAWLGDETKKKSMFDSKRAAVALKWKGIELCGVSFDLLLAAYLLDPAQGVDDVAAAAKMKQYEAVRPDEAVYGKGAKRAVPDEPVLAEHLVRKAAAIWELERPFLDELRRNEQDRLLVELEQPLSSILAEMEFAGVKVDTKRLEQMGKELAEQLGTVEQRIYELAGQEFNINSPKQLGVILFEKLQLPVLKKTKTGYSTSADVLEKLAPYHEIVENILHYRQLGKLQSTYIEGLLKVVRPATKKVHTIFNQALTQTGRLSSTEPNLQNIPIRLEEGRKIRQAFVPSESDWLIFAADYSQIELRVLAHIAEDDNLMEAFRRDLDIHTKTAMDIFQVSEDEVTPNMRRQAKAVNYGIVYGISDYGLAQNLNISRKEAAEFIERYFESFPGVKRYMENIVQEAKQKGYVTTLLHRRRYLPDITSRNFNVRSFAERMAMNTPIQGSAADIIKKAMIDLNARLKEERLQAHLLLQVHDELILEAPKEEMERLCRLVPEVMEQAVTLRVPLKVDYHYGSTWYDAK | soluble
MKVMNIIHDSVVDGEGLRTVVFFAGCPHRCFGCHNPKSWNICNGTEMTVEEIVKEIASNPLTDVTFSGGDPFFQAAEVKKVAKAVKDLKKNLWMYTGYTLEEIQSSQNNDMIELLHYGDVLVDGRFEIGKKDLTLPFRGSSNQRIIRLKELEHHHHHH | soluble
MGKNFDEAALLKSLEGVPDAEKVQKLIKKLAESEKQNAELKIKVLDYDKVVKVKDLTEKKLERNNQILLRTEEAKSKLEELCRGLQKANHQTREEACAKMKKLEVERGLAVEQLKVTLKDIEKTMAEGRSKSDSLAEDNKKLSEKFSEIGHQYEEKMKVIDQQIQKKEKYWEEYGKTKDLEIKLLTAKLESASIQVKKSGMEKDELAKIMLEETARVGGALKTEKALREQVQEYSAKYSELTSCLSKSNEAFDKFKDEISRVNKKCMQVEKEGLSYKKKSDEANKKVLVLTMTNQEYAEKIATSDKKIQMLENLCRALRKGEQEPVTTAETTEAN | not soluble
MASVGIFFGSDTGNTEAIAKMIQKQLGKKLVHVQDIAKSSKEDINNFDLLLLGIPTWYYGEAQCDWDDFFPELEAIDFSTKLVAIFGCGDQEDYAEYFCDAMGTVRDIIQAKGATIVGHWPTEGYEFEASKALVDENHFVGLCIDEDRQPELTEQRVTKWVNQVYEEMCLAELED | not soluble
MGSDKIHHHHHHMGNPRAFLTIHRQEAGYRPVHERIDDFSEVEQTLNSGDRRTQASRCMDCGVPFCHWACPLGNKQPEWQDLLYKGRYKEAYHVLEQTDDFPEFTGRVCPALCEKSCVLKLSCDEPVTIRENEAAIVEAAFREGYVQPIQPVRNGKKVAVIGSGPAGLTVANQLNRKGYEVTVFEKDELPGGLLRFGIPNFKLGKHIIDRRIRIMEQEGILFRVNTMVGKEILAKDVVKDFDAVCVAIGAEVPRDLSIEGRHLRGVHFALELLSQQNRILEGIPIPPKSQINCKGKKVLVIGGGDTGSDCVGTANRHGAACVTQIEIMPQPPVGQNPATPWPMYPQVLKTSSSHEEGCIRRWNLASNRFIGEKNNLIGVEVEEVEWVPSPDGGRPQMRQTGKKEIIEADLVFLAMGFLHPVQEGLIKELRLATDNRNNIAVDNAGYTANSNLFACGDAVSGASLVVKAMASGRNVARSIDRFLQTN | not soluble
MGSDKIHHHHHHMNSKIYYFSGTGNSLVVSNILKETLNGSKEVIPLAIHRKENNIDINEDILVIVFPVYFADVPDIVKSFVEKLNFNINTHIYAIATCNGVAGHSLFTIDKLLKKRGKKLSAGFLINMPGNALITPPDVEEERLKNQTNRVAEIAKCINNLEIGNIEGKNNLKSHIDSVVLRLVGKNMQIATTKFFAENKCNGCGTCKRVCPVENISIVDKKPKWGNECERCLACFHWCPKEAINVKKSFLTNRKKYHHPDITVKDIFLDK | not soluble
MLLEIKDLVYKASDRIILDHISLKVDKGESIAIIGPSGSGKSTFQKQICNLFSPTSGELYFKGKPYNDYDPEELRQRISYLMQQSDLFGETIEDNMIFPSLARNDKFDRKRAKQLIKDVGLGHYQLSSEVENMSGGERQRIAIARQLMYTPDILLLDESTSALDVNNKEKIENIIFKLADQGVAIMWITHSDDQSMRHFQKRITIVDGQISNTEELNQHE | soluble
MEDFWEDWDLAFEDVFPKSLKEALEGIKEIPTYGERGASRFMYNLLKLEKEKRKEIIEKVLEAVEVLRPCRECFLITDREVCPICSDEKRSKKFICVVEESQDAYAIEKLERYKGVYHVLQGHIAPLEGISAEDLTIDALMERIKKYQPKEVILATNPNVEGEATANYIAGLIRRKFPAVKITRTAYGFQFGSLIEFVDEYSLEKSMENRK | soluble
MLLMMVVGLTAGVLAGCANPKDTTEEFLTAIQKGDIEKARTFVESDKEFNKLNEKTDDAEAKAMLSAITKNFKFEKLEEVSKKDDKAEVKVKITSADLSVAVTKAVGEVMPMAFASAFSEDKEQSEKAIEKTMTSTIIKNLTDKDAAMATREVTLNLKKDKDGDYKIVADDNLKEVLFANAKSLEKMFGGK | not soluble
MRMKQTIPSSYVGLKINEWYTHIRQFHVAEAERVKLEVEREIEDMEEDQDLLLYYSLMEFRHRVMLDYIKPFGEDTSQLEFSELLEDIEGNQYKLTGLLEYYFNFFRGMYEFKQKMFVSAMMYYKRAEKNLALVSDDIEKAEFAFKMAEIFYNLKQTYVSMSYAVQALETYQMYETYTVRRIQCEFVIAGNYDDMQYPERALPHLELALDLAKKEGNPRLISSALYNLGNCYEKMGELQKAAEYFGKSVSICKSEKFDNLPHSIYSLTQVLYKQKNDAEAQKKYREGLEIARQYSDELFVELFQFLHALYGKNIDTESVSHTFQFLEEHMLYPYIEELAHDAAQFYIENGQPEKALSFYEKMVHAQKQIQRGDCLYEI | not soluble
MSPRCANLALKHYLLKPVQRIPQYRLLLTDYLKNLIEDAGDYRDTQDALAVVVEVANHANDTMKQGDNFQKLMQIQYSLNGHHEIVQPGRVFLKEGILMKLSRKVMQPRMFFLFNDALLYTTPVQSGMYKLNNMLSLAGMKVRKPTQEAYQNELKIESVERSFILSASSATERDEWLEAISRAIEEYAKKRITFCPSRSLDEADSENKEEVSPLGSKAPIWIPDTRATMCMICTSEFTLTWRRHHCRACGKIVCQACSSNKYGLDYLKNQPARVCEHCFQELQKLDHQHSPRIGSPGNHKSPSSALSSVLHSIPSGRKQKKIPAALKEVSANTEDSSMSGYLYRSKGNKKPWKHFWFVIKNKVLYTYAASEVRSEI | soluble
MSLLRAIIVDNEEPATQILQMLLEKTGQIRVVGTFLRAADALSSLRLTKPDVAFLDIEIPDTSGLELANHILAMDSDVEIIFVTAYDHYALHAFRVNALDYLLKPLLPEDVERAVRRLIKRKGLAKDSAPESPLGANIHYFGKFSVYGPASKKPVKWRTSKAEELFAYLVQNLEKEVPKWRICEALWPEYHSEKVDIQLHTTVYKLKKVLTAANIPFDLSFSNGCYWLSLPQAAIDKVEFDAHIASSVPVNQSTIARCEHALSLYTGDYLEENGYLWSLALKAEYGQKFYKLASSVVNFYMTQGDWVRAEKILRSILERCPLDETVHEMLLTCYFTQKDRTAFITHYHTVRKLFQAELGLEPGKSIQTLYHSLLKRMDEGHHHHHH | soluble
QKNPDSYNGAVRENYTWSQDYTDLEVRVPVPKHVVKGKQVSVALSSSSIRVAMLEENGERVLMEGKLTHKINTESSLWSLEPGKCVLVNLSKVGEYWWNAILEGEEPIDID | soluble
